Kd data for 2 substances are collected here from patent publication US20020161201A1.

A word on the Kd: it is the concentration at which binding is half-saturated. High values mean lower affinity, low ones higher affinity.

For this assay, the target named is bovine submaxillary mucin type I (bovine). The assay can be described thus: competition ELISA with biotinylated CC49 SCA, mucin. (In an ELISA, binding on a coated surface is turned into a signal by an enzyme label.)

Substance biotinylated CC49 SCA (scFv) returned a Kd of 6.2 nM. “non-PEGylated CC49 SCA (Native-CC49) (scFv)”: the dissociation constant Kd was determined as 3.6 nM.
